# Source: US20210155676A1
# Target: Env of 92 subtype B viruses
# Assay: cell-based or functional assay
Binder,PGT121 IC50/Variant IC50 [fold],neutralization Coverage (%),neutralization Median IC95 [µg/mL]
PGT121.42 hIgG1/hLambda (antibody) heavy: QMQLQESGPGLVKPSETLSLTCSVSGASISDSYWSWIRRSPGKGLEWIGYVHKSGDTNYNPSLKSRVHLSLDTSKNQVSLSLSSVTAADSGKYYCARTLHGRRIYGIVAFNEWFTYFYMDVWGKGTQVTVSSASTKGPSVFPLAPSSKSTSGGTAALGCLVKDYFPEPVTVSWNSGALTSGVHTFPAVLQSSGLYSLSSVVTVPSSSLGTQTYICNVNHKPSNTKVDKKVEPKSCDKTHTCPPCPAPELLAGPDVFLFPPKPKDTLMISRTPEVTCVVVDVSHEDPEVKFNWYVDGVEVHNAKTKPREEQYNSTYRVVSVLTVLHQDWLNGKEYKCKVSNKALPLPEEKTISKAKGQPREPQVYTLPPSREEMTKNQVSLTCLVKGFYPSDIAVEWESNGQPENNYKTTPPVLDSDGSFFLYSKLTVDKSRWQQGNVFSCSVLHEALHSHYTQKSLSLSPGK light: not shown,1.2,63,0.277
PGT121.61 hIgG1/hLambda (antibody) heavy: QMQLQESGPGLVKPSETLSLTCSVSGASISDSYWSWIRRSPGKGLEWIGYVHKSGDTNYNPSLKSRVHLSLDTSKNQVSLSLTGVTAADSGKYYCARTLHGRRIYGIVAFNEWFTYFYMDVWGTGTQVTVSSASTKGPSVFPLAPSSKSTSGGTAALGCLVKDYFPEPVTVSWNSGALTSGVHTFPAVLQSSGLYSLSSVVTVPSSSLGTQTYICNVNHKPSNTKVDKKVEPKSCDKTHTCPPCPAPELLAGPDVFLFPPKPKDTLMISRTPEVTCVVVDVSHEDPEVKFNWYVDGVEVHNAKTKPREEQYNSTYRVVSVLTVLHQDWLNGKEYKCKVSNKALPLPEEKTISKAKGQPREPQVYTLPPSREEMTKNQVSLTCLVKGFYPSDIAVEWESNGQPENNYKTTPPVLDSDGSFFLYSKLTVDKSRWQQGNVFSCSVLHEALHSHYTQKSLSLSPGK light: SDISVAPGETARISCGEKSLGSRAVQWYQHRAGQAPSLIIYNNQDRPSGIPERFSGSPDSRPGTTATLTITSVEAGDEADYYCHIWDSRVPTKWVFGGGTKLTVLGQPKAAPSVTLFPPSSEELQANKATLVCLISDFYPGAVTVAWKADSSPVKAGVETTTPSKQSNNKYAASSYLSLTPEQWKSHRSYSCQVTHEGSTVEKTVAPTECS,1,58.7,0.327
PGT121.65 hIgG1/hLambda (antibody) heavy: QLQLQESGPGLVKPSETLSLTCSVSGASISDAYWSWIRRSPGKGLEWIGYVHKSGDTNYNPSLKSRVHLSLDTSKNQVSLSLTGVTAADSGKYYCARALHGRRIYGIVAFNEWFTYFYMDVWGTGTQVTVSSASTKGPSVFPLAPSSKSTSGGTAALGCLVKDYFPEPVTVSWNSGALTSGVHTFPAVLQSSGLYSLSSVVTVPSSSLGTQTYICNVNHKPSNTKVDKKVEPKSCDKTHTCPPCPAPELLAGPDVFLFPPKPKDTLMISRTPEVTCVVVDVSHEDPEVKFNWYVDGVEVHNAKTKPREEQYNSTYRVVSVLTVLHQDWLNGKEYKCKVSNKALPLPEEKTISKAKGQPREPQVYTLPPSREEMTKNQVSLTCLVKGFYPSDIAVEWESNGQPENNYKTTPPVLDSDGSFFLYSKLTVDKSRWQQGNVFSCSVLHEALHSHYTQKSLSLSPGK light: SDISVAPGETARISCGEKSLGSRAVQWYQHRAGQAPSLIIYNNQDRPSGIPERFSGSPDSRPGTTATLTITSVEAGDEADYYCHIWDSRVPTKWVFGGGTKLTVLGQPKAAPSVTLFPPSSEELQANKATLVCLISDFYPGAVTVAWKADSSPVKAGVETTTPSKQSNNKYAASSYLSLTPEQWKSHRSYSCQVTHEGSTVEKTVAPTECS,2,59.8,0.165
PGT121.60 hIgG1/hLambda (antibody) heavy: QMQLQESGPGLVKPSETLSLTCSVSGASISDSYWSWIRRSPGKGLEWIGYVHKSGDTNYNPSLKSRVHLSLDTSKNQVSLSLTGVTAADSGKYYCARTLHGRRIYGIVAFNEWFTYFYMDVWGTGTQVTVSSASTKGPSVFPLAPSSKSTSGGTAALGCLVKDYFPEPVTVSWNSGALTSGVHTFPAVLQSSGLYSLSSVVTVPSSSLGTQTYICNVNHKPSNTKVDKKVEPKSCDKTHTCPPCPAPELLAGPDVFLFPPKPKDTLMISRTPEVTCVVVDVSHEDPEVKFNWYVDGVEVHNAKTKPREEQYNSTYRVVSVLTVLHQDWLNGKEYKCKVSNKALPLPEEKTISKAKGQPREPQVYTLPPSREEMTKNQVSLTCLVKGFYPSDIAVEWESNGQPENNYKTTPPVLDSDGSFFLYSKLTVDKSRWQQGNVFSCSVLHEALHSHYTQKSLSLSPGK light: not shown,1.9,59.8,0.177
PGT121.56 hIgG1/hLambda (antibody) heavy: QMQLQESGPGLVKPSETLSLTCSVSGASISDSYWSWIRRSPGKGLEWIGYVHKSGDTNYSPSLKSRVNLSLDTSKNQVSLSLVAATAADSGKYYCARTLHGRRIYGIVAFNEWFTYFYMDVWGNGTQVTVSSASTKGPSVFPLAPSSKSTSGGTAALGCLVKDYFPEPVTVSWNSGALTSGVHTFPAVLQSSGLYSLSSVVTVPSSSLGTQTYICNVNHKPSNTKVDKKVEPKSCDKTHTCPPCPAPELLAGPDVFLFPPKPKDTLMISRTPEVTCVVVDVSHEDPEVKFNWYVDGVEVHNAKTKPREEQYNSTYRVVSVLTVLHQDWLNGKEYKCKVSNKALPLPEEKTISKAKGQPREPQVYTLPPSREEMTKNQVSLTCLVKGFYPSDIAVEWESNGQPENNYKTTPPVLDSDGSFFLYSKLTVDKSRWQQGNVFSCSVLHEALHSHYTQKSLSLSPGK light: not shown,,62,0.265
PGT121.64 hIgG1/hLambda (antibody) heavy: QLQLQESGPGLVKPSETLSLTCSVSGASISDAYWSWIRRSPGKGLEWIGYVHKSGDTNYNPSLKSRVHLSLDTSKNQVSLSLTGVTAADSGKYYCARALHGRRIYGIVAFNEWFTYFYMDVWGTGTQVTVSSASTKGPSVFPLAPSSKSTSGGTAALGCLVKDYFPEPVTVSWNSGALTSGVHTFPAVLQSSGLYSLSSVVTVPSSSLGTQTYICNVNHKPSNTKVDKKVEPKSCDKTHTCPPCPAPELLAGPDVFLFPPKPKDTLMISRTPEVTCVVVDVSHEDPEVKFNWYVDGVEVHNAKTKPREEQYNSTYRVVSVLTVLHQDWLNGKEYKCKVSNKALPLPEEKTISKAKGQPREPQVYTLPPSREEMTKNQVSLTCLVKGFYPSDIAVEWESNGQPENNYKTTPPVLDSDGSFFLYSKLTVDKSRWQQGNVFSCSVLHEALHSHYTQKSLSLSPGK light: not shown,2.6,59.8,0.129
